These are literature values, as cited in paper PMC4028615.

For the data set, the target named is integrin (LFA-1) (Homo sapiens) (UniProt P20701).
Chain of integrin (LFA-1) (Homo sapiens) (P20701 26-1090, chain 1 of 2): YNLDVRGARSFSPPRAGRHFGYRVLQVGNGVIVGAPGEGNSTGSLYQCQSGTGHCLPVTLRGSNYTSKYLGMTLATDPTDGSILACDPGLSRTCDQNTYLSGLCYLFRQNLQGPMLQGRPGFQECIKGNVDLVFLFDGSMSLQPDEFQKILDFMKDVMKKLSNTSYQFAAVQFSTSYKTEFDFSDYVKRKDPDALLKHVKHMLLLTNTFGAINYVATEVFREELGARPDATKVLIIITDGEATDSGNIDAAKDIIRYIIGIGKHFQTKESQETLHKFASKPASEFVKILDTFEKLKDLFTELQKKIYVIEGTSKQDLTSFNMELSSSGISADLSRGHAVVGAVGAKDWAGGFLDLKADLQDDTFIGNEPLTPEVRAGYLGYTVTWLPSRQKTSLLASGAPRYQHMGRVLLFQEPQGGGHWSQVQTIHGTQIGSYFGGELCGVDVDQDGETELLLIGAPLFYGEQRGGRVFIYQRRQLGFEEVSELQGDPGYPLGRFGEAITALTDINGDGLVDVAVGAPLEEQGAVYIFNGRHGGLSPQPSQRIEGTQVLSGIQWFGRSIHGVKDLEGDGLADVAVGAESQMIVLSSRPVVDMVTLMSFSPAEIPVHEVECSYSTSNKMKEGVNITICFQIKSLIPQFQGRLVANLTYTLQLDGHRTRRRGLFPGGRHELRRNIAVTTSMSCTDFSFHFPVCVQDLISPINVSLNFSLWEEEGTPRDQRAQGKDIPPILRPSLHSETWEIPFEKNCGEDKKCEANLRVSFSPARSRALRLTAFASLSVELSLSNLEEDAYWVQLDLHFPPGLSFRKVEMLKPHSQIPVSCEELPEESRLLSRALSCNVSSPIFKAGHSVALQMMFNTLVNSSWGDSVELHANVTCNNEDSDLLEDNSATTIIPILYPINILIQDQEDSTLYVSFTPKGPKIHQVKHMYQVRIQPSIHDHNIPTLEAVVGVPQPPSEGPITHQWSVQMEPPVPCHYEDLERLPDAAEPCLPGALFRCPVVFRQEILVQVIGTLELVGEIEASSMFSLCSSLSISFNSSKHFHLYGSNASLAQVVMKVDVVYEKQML
Chain of integrin (LFA-1) (Homo sapiens) (P05107 23-700, chain 2 of 2, further chain): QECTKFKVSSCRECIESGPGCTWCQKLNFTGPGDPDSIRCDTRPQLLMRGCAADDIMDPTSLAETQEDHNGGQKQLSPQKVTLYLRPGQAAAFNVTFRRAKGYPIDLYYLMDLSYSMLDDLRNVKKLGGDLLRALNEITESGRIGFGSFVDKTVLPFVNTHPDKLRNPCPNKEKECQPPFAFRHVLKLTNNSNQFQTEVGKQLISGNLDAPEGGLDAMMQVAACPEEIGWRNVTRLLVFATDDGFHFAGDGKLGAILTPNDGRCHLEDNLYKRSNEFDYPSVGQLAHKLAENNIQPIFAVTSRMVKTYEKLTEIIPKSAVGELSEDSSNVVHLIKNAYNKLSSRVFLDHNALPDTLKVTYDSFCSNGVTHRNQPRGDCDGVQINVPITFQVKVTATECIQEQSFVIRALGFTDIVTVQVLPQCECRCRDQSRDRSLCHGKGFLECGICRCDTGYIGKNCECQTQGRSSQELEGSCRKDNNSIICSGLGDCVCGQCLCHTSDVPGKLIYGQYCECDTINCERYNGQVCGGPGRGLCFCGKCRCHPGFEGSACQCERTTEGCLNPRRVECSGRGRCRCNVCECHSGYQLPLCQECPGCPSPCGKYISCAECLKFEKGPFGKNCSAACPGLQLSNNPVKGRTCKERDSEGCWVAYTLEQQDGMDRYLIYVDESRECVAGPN

Chain of ICAM-1 (P05362 28-480): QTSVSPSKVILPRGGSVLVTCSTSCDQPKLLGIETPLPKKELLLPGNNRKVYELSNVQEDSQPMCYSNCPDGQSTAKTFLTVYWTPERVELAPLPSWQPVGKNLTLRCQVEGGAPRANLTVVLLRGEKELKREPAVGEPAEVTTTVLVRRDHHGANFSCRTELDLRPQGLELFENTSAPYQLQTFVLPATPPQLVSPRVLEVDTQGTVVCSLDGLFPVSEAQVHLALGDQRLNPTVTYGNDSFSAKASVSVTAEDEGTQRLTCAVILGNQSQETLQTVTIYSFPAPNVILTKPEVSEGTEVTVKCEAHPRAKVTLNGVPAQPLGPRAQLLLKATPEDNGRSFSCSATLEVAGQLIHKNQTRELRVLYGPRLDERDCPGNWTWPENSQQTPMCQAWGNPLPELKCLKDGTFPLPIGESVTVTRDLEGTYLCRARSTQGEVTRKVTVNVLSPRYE

ICAM-1 (from UniProt P05362): the dissociation constant Kd is 100 nM.
